Our source for the Kd values is paper PMC9399289.

In the series the target is T1, GST-SDE2-FLAG WT (human) (UniProt Q6IQ49).
T1 sequence: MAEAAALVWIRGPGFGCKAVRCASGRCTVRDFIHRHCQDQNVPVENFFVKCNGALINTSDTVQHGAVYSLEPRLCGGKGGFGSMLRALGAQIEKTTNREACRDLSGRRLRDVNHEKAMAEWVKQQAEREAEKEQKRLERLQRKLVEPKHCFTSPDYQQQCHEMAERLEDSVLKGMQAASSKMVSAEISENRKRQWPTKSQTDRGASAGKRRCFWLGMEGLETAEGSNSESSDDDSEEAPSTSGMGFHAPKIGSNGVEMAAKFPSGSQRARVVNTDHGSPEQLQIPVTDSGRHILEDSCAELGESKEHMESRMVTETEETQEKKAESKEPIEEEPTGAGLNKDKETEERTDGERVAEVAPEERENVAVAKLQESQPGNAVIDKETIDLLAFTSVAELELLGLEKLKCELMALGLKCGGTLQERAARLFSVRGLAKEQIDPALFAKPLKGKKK
The series is described as follows: fluorescence anisotropy. As to conditions: EMSA: 10 mM Tris-HCl pH 7.5, 50 mM NaCl, 0.5 mM DTT, 0.05 mM EDTA, 3% glycerol, 0.05 mg/ml BSA (or 50 mM Na/K PO4 pH 6.0, 50 mM NaCl, 5 mM DTT), on ice …. A general note: In fluorescence polarisation assays a small probe gives low polarisation when free and higher when bound to something large.

As a reminder, the Kd is a measure of binding affinity in units of concentration. Low readings indicate a tighter complex, high ones a looser complex.

In turn, “GACGCTGCCGAATTCTACCAGTGCCTTGCTAGGACATCTTTGCCCACCTGCAGGTTCACCC (double strand) [60-mer dsDNA (EMSA1/EMSA2)]” came in with a Kd of 24.2 µM.
